Laboratory results taken from PMC3903776, “Structural Characterization of the Mechanosensitive Channel Candidate MCA2 from Arabidopsis thaliana” (PLoS ONE, 2014).

Target: the molecule itself
Experiment: cross-linking; purified MCA2-6H in PBS with 4% APFO; 10 mM glutaraldehyde, room temperature, up to 30 min, stopped with 50 mM Tris-HCl pH 8.0; reducing SDS-PAGE, CBB staining

B1: MCA2-6H (Arabidopsis thaliana MCA2 with a 6xHis tag fused to the carboxyl terminus) (natural protein, UniProt Q3EBY6 1-416, looked up)
chain: MANSWDQLGEIASVAQLTGIDALKLIGMIVNAANTARMHKKNCRQFAHHLKLIRNLLEQIKNSEMNQRSEILEPLQGLDDALRRSYILVKSCQEKSYLYLLAMGWNIVNQFEKAQNEIDLFLKIVPLINMADNARIRERLEAIERDQREYTLDEEDRKVQDVILKQESTREAATSVLKKTLSRSYPNMGFCEALKTEEEKLQLELQRSRARYDADQCEVIQRLIDVTQTAATVEPNLEKVLTKKEELTSSKKRDDLYDTDSSSIRADSRSTSYVSSGHELLSGRSLQHRGNWHADLLDCCSEPCLCLKTLFFPCGTLAKISTVATSRQISSTEVCKNLIVYSLILSCCCYTCCIRKKLRKTLNITGGCIDDFLSHLMCCCCALVQELREVEIHRASYGTEKSNKEMSPPTPQFMEE
notes: MCA2 of Arabidopsis thaliana, 416 amino acid residues; source: Sf9 cells, baculovirus (Bac-to-Bac), membrane fraction solubilised in APFO, purified (His GraviTrap, Superdex 200 SEC); not shown: 6xHis, C-terminal, kept
B1 was tested, and the “stoichiometry N” value was 4.
